Target: the molecule itself
Assay: cross-linking

B1: β3 TMD-tail (construct of the cross-linking experiment, Figure S5) (domain or fragment, UniProt P05106 711-788, looked up)
chain: PECPKGPDILVVLLSVMGAILLIGLAALLIWKLLITIHDRKEFAKFEEERARAKWDTANNPLYKEATSTFTNITYRGT
B1 was tested, and the “stoichiometry N” value was 2.

Reference: paper PMC7202955 (Current biology : CB, 2020)
